Source: paper PMC13418256

Target: human TLR5 (human) (UniProt O60602)
Chain of UniProt O60602 (O60602 21-858): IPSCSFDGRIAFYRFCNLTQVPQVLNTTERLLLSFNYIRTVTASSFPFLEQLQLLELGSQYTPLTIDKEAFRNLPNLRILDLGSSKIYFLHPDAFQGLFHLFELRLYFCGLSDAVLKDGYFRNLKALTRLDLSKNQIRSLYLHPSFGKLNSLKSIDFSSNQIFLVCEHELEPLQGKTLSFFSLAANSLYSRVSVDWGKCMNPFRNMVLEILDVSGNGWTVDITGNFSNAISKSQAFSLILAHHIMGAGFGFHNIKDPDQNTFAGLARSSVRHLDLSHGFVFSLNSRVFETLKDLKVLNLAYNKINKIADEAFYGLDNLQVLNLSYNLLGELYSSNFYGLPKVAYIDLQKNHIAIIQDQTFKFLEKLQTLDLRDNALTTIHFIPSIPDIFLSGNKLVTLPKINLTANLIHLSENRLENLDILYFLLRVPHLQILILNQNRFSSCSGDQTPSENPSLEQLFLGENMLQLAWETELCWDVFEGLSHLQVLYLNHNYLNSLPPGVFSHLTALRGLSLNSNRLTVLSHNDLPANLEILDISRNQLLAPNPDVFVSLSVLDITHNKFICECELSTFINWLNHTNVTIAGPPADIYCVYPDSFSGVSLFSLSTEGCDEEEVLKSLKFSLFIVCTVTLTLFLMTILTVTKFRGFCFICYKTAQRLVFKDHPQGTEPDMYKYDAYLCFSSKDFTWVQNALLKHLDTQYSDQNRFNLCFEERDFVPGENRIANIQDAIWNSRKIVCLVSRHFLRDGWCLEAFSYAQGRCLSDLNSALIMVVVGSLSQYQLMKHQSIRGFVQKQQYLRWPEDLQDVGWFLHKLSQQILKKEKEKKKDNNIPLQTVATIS

Substance: Enterobacter sp. BIDMC93 host-encoded flagellin FliCH (natural protein)
- TLR5-driven NF-κB activation (SEAP colorimetric reporter) in HEK293T-Blue-hTLR5 cells stimulated with an Ent strain expressing only FliCH (ΔfliCP-tldR-gRNA), against the WT lysogenic strain (fold of the WT lysogenic strain): 2
